Measured values: US20230250188A1 (NATIONAL UNIVERSITY CORPORATION KOCHI UNIVERSITY, published 2023)
Values belong to the binder of their own block, whether it stands above or below them.

How the values were obtained:
[1] = target: T1, recombinant human GPC1 protein (R&D Systems) (human, UniProt P35052 24-530); experiment: SPR (Biacore 8K); antibody captured by anti-human IgG (Fc) on a CM5 chip, recombinant human GPC1 flowed over
T1 construct: Bought recombinant protein (R&D Systems); also called human GPC-1 antigen; Glypican-1
T1 sequence: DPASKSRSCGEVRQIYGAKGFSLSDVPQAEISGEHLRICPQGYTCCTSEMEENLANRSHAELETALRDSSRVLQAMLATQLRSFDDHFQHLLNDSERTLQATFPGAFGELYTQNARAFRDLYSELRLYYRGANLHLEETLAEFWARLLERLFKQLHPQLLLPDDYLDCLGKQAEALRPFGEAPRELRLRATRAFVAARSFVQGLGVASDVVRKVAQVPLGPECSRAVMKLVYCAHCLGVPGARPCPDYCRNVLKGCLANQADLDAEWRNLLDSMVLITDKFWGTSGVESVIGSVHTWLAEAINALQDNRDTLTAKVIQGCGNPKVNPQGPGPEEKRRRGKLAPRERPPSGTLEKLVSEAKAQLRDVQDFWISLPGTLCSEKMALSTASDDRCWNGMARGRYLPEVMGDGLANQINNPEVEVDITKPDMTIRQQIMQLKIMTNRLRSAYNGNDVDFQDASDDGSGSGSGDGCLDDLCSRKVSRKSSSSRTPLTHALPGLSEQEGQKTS
Protocol: The mouse anti-human-GPC1 monoclonal antibody was humanized (subclass: IgG4), and the obtained twenty clones (T1, T2, T3, T7, T8, T10, T11, T22, T26, T28, T29, T31, T32, T33, T34, T36, T43, T56, T57, T59) were prepared. An anti-human IgG (Fc) was immobilized on an sCM5 sensor chip (GE Healthcare) using Human antibody capture kit (GE Healthcare), and the affinity of each of these clones to a recombinant human GPC1 protein (R&D Systems) was measured using Biacore (registered trademark) 8K (GE Healthcare).

[2] = target: T2, human GPC1 on the surface of GPC1-positive cancer cells (TE8, TE14, BxPC-3) (human, UniProt P35052 24-530); experiment: cell-based or functional assay
T2 sequence: T1 sequence

[3] = target: T2, human GPC1 on the surface of …; experiment: flow cytometry on TE8 cells, antibody titration, FITC anti-human IgG as secondary antibody
Protocol: (§1) The measurement was performed with FACS CantoII (BD) using the human/mouse chimeric anti-GPC1 antibody (clone 01a033) and the humanized anti-GPC1 antibody (clone T2) as primary antibodies at various concentrations and FITC labeled anti-human-IgG-FITC (Jackson Immuno Research, Catalog No. 109-095-098) as a secondary antibody, and the measurement data were analyzed using BD FACS Diva Software (BD).

[4] = target: T2, human GPC1 on the surface of …; experiment: flow cytometry on BxPC3 cells, antibody titration, FITC anti-human IgG as secondary antibody
Protocol: as §1, with “In the FACS analysis using the antibody, cells of human pancreatic cancer cell line (BxPC-3) were used as GPC1-positive cells. The” for “The”, “the” for “the human/mouse chimeric anti-GPC1 antibody (clone 01a033) and the”, “T2) and the humanized GPC1-ADC (MMAE)” for “T2)”
The influence of conjugation of a payload with the humanized anti-GPC1 antibody (T2) on the antigen affinity was evaluated by analyzing the antibody concentration-dependent binding ability with FACS using GPC1 expression-positive BxPC3 cells.

[5] = target: T2, human GPC1 on the surface of …; experiment: cell-based or functional assay; remark: listed apart in the source
[6] = target: T2, human GPC1 on the surface of …; experiment: cell-based or functional assay; remark: listed apart in the source
MC38-mGPC1 [7] = target: T3, MC38-mGPC1; experiment: cell-based or functional assay
T3 mouse Glypican-1: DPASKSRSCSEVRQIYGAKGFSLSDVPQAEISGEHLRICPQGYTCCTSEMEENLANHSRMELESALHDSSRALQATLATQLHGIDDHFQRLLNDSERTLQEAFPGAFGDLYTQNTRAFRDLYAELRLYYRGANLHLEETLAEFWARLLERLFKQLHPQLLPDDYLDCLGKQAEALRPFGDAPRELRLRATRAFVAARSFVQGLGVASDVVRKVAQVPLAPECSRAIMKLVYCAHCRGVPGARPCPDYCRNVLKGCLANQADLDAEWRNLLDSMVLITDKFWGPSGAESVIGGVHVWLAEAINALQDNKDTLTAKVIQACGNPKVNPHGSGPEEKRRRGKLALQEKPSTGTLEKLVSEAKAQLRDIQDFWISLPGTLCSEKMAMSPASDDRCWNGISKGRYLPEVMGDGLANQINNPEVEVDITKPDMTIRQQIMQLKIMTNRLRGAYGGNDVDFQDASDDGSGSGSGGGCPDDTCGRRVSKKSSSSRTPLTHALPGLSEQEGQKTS

MC38-mGPC1 [8] = target: T3, MC38-mGPC1; experiment: flow cytometry on MC38-mGPC1 cells (the sheet names clone 01a033 and mIgG2a; paragraph 327 names clone T2 with FITC anti-human IgG)
[9] = target: T1, recombinant human GPC1 protein (R&D …); experiment: SPR (Biacore 8K); antibody captured by anti-mouse-Fc antibody on the chip, human GPC-1 flowed over
Protocol: The binding affinity of the mouse antibody to human GPC-1 was measured through surface plasmon resonance technique (Biacore (registered trademark) 8K). An anti-mouse-Fc antibody was immobilized on a chip, and the mouse antibody (01a033) was flowed thereon and allowed to bind thereto. After washing, the human GPC-1 was flowed thereon, and the binding constant (Ka) and the dissociation constant (Kd) were measured.

Kd [1]: 5.2 nM | koff [1]: 0.00125 s⁻¹ | kon [1]: 240000 M⁻¹ s⁻¹ | Kd [3]: 1.89 nM | Kd [4]: 0.529 nM
B1: humanized anti-GPC1 antibody (clone T2) (antibody, human IgG4 S228P, kappa, V domains shown)
VH: QVQLVQSGAEVKKPGASVKVSCKASGYTFTGYYMHWVRQAPGQGLEWMGEINPSTGDTTYNQKFKARVTMTRDTSTSTVYMELSSLRSEDTAVYYCAREKRDDGVFAYWGQGTLVTVSS
VL: DIVMTQSPSFLSASVGDRVTITCRASQGISSYLVWYQQKPGKPPKLLIYSASVLQSGVPSRFSGRGYGTDFTLTISSLQPEDFATYYCQQSFSIPPVTFGGGTKVEIKR
notes: IgG; also called humanized anti-GPC1 antibody (T2); unlabeled antibody
IC50 of cytotoxicity on TE14 cells (ATP cell viability, 144 h) with MMAF-linked anti-human-IgG Fab as secondary antibody [2]: 0.0361 nM

IC50 of growth inhibition of Detroit562 cells (in-vitro ADC assay, CellTiter-Glo, 144 h) [5]: 0.724 nM | IC50 of growth inhibition of FaDu cells (in-vitro ADC assay, CellTiter-Glo, 144 h) [5]: 0.3 nM | IC50 of growth inhibition of HeLa cells (in-vitro ADC assay, CellTiter-Glo, 144 h) [5]: 0.259 nM | IC50 of growth inhibition of Ho-1-u-1 cells (in-vitro ADC assay, CellTiter-Glo, 144 h) [6]: 0.329 nM | IC50 of growth inhibition of KON cells (in-vitro ADC assay, CellTiter-Glo, 144 h) [6]: 0.153 nM | IC50 of growth inhibition of MC38-mGPC1 cells (in-vitro ADC assay) (MC38-mGPC1 [7]): 2.29 nM | Kd [4]: 0.57 nM
B2: humanized GPC1-ADC (MMAE) (antibody, V domains shown)
VH: B1 VH
VL: B1 VL
modifications: MC-vc-PAB-MMAE linked by maleimide to cysteines of the reduced interchain disulfide bonds; DAR 4.0 for the whole antibody
notes: also called humanized anti-GPC1-ADC; humanized anti-GPC1-ADC (MMAE)

More lines, now with the values behind:

B3: human/mouse chimeric anti-GPC1 antibody (clone 01a033) (antibody, human IgG4 S228P, kappa, V domains shown)
VH: QVQLKQSGPELVKPGASVKISCKASGYSFTGYYMHWVKQSPEKSLEWIGEINPSTGDTTYNQKFKAKATLTVDKSSSTAYMQLKSLTSEDSAVYYCAREKRDDGVFAYWGQGTLVTVSS
VL: DIVMSQSPKSMSMSVGERVALSCKASENVGTYVSWYQQKPEQSPKLLIYGASNRYTGVPDRFTGSGSATDFTLTISSVQAEDLADYYCGQSYSYPLTFGAGTKLELKR
notes: also called chimeric mouse antibody (01a033); anti-GPC-1 chimeric antibody (01a033)
Kd [1]: 10.2 nM | koff [1]: 0.00309 s⁻¹ | kon [1]: 302000 M⁻¹ s⁻¹ | IC50 of cytotoxicity on TE14 cells (ATP cell viability, 144 h) with MMAF-linked anti-human-IgG Fab as secondary antibody [2]: 0.071 nM | Kd [3]: 2.38 nM

B4: anti-GPC-1 mouse monoclonal antibody 01a033 (antibody, V domains shown)
VH: B3 VH
VL: DIVMSQSPKSMSMSVGERVALSCKASENVGTYVSWYQQKPEQSPKLLIYGASNRYTGVPDRFTGSGSATDFTLTISSVQAEDLADYYCGQSYSYPLTFGAGTKLELK
notes: Mouse monoclonal antibody; also called mouse antibody (01a033); mouse anti-GPC1 antibody (clone 01a033)
binding result (MC38-mGPC1 [8]): binds | Kd [9]: 31.6 nM | koff [9]: 0.00388 s⁻¹ | kon [9]: 123000 M⁻¹ s⁻¹
